Experiment [1] has as its target T1, ERK2 (as used in the fluorescence polarization titrations) (human, UniProt P28482 1-360).
T1 construct: ERK2; the FP methods say only 'MAPKs'
Nature of the experiment: fluorescence polarisation; competition: 50 nM N-terminally labeled reporter peptide mixed with MAPK at ~60–80% complex formation, increasing amounts of unlabeled synthetic test peptide added; 384-well plates, triplicates; Ki from a competition binding equation. The note with it: both partners purified.

The target of experiment [2] is T2, p38α (as used in the fluorescence polarization titrations) (human, UniProt Q16539 1-360).
T2 construct: p38α; the FP methods say only 'MAPKs'
The experiment is described as above. The following applies: both partners purified.

Ends that are not written are not given here.

T2 sequence (Q16539 whole entry): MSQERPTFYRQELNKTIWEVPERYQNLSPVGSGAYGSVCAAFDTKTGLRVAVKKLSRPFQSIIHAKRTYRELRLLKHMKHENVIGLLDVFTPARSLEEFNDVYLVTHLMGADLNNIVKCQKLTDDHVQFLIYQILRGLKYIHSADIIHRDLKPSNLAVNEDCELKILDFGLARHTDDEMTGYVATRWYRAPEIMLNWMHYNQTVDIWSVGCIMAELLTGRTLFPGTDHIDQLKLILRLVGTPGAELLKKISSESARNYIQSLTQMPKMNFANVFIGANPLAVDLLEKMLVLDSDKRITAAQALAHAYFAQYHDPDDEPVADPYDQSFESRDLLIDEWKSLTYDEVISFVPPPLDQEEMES
T1 sequence (P28482 whole entry): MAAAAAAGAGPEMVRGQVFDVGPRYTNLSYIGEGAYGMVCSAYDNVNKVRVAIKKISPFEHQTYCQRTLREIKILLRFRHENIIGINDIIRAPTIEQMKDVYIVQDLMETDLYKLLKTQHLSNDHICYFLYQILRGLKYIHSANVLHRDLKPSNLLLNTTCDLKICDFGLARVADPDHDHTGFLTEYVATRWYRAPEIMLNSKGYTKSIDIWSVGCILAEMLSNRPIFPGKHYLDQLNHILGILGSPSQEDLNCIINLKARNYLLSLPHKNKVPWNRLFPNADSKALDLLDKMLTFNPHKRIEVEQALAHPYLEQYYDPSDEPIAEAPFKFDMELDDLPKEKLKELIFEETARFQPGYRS

B1: pepRSK1, labeled reporter peptide (peptide)
peptide: PQLKPIESSILAQRRVRKLPSTTL
modifications: also: N-terminal label: carboxyfluorescein or carboxytetramethylrhodamine
notes: docking peptide of RSK1; source: synthetic peptide
Regarding B1, the binding result in experiment [1] is recorded as “binds”.

B2: pepMK2, labeled reporter peptide (peptide)
peptide: IKIKKIEDASNPLLLKRRKK
modifications: also: N-terminally labeled with carboxyfluorescein or carboxytetramethylrhodamine
notes: docking peptide of MK2; source: synthetic peptide
For B2, the binding result in experiment [2] is recorded as “binds”.

B3: pepMEF2A, labeled reporter peptide (peptide)
peptide: SRKPDLRVVIPPS
modifications: also: N-terminally labeled with carboxyfluorescein or carboxytetramethylrhodamine
notes: docking peptide of MEF2A; source: synthetic peptide
With B3, the binding result in experiment [2] is “binds”.

For the origin of these results see publication PMC4670726, “Systematic discovery of linear binding motifs targeting an ancient protein interaction surface on MAP kinases” (Molecular Systems Biology, 2015).
